“Also recorded” adds a separate entry of the source.
B1: Colicin Ia (protein, UniProt P06716 1-626, looked up)
Colicin-Ia: MSDPVRITNPGAESLGYDSDGHEIMAVDIYVNPPRVDVFHGTPPAWSSFGNKTIWGGNEWVDDSPTRSDIEKRDKEITAYKNTLSAQQKENENKRTEAGKRLSAAIAAREKDENTLKTLRAGNADAADITRQEFRLLQAELREYGFRTEIAGYDALRLHTESRMLFADADSLRISPREARSLIEQAEKRQKDAQNADKKAADMLAEYERRKGILDTRLSELEKNGGAALAVLDAQQARLLGQQTRNDRAISEARNKLSSVTESLNTARNALTRAEQQLTQQKNTPDGKTIVSPEKFPGRSSTNHSIVVSGDPRFAGTIKITTSAVIDNRANLNYLLSHSGLDYKRNILNDRNPVVTEDVEGDKKIYNAEVAEWDKLRQRLLDARNKITSAESAVNSARNNLSARTNEQKHANDALNALLKEKENIRNQLSGINQKIAEEKRKQDELKATKDAINFTTEFLKSVSEKYGAKAEQLAREMAGQAKGKKIRNVEEALKTYEKYRADINKKINAKDRAAIAAALESVKLSDISSNLNRFSRGLGYAGKFTSLADWITEFGKAVRTENWRPLFVKTETIIAGNAATALVALVFSILTGSALGIIGYGLLMAVTGALIDESLVEKANKFWGI
notes: Wild-type bacterial toxin secreted by E. coli forming ion channels
B2: PMC-AM1: Fusion of antibody mimetic AM1 (VHCDR1-VHFR2-VLCDR3, Seq ID No.2) to C-terminus of Colicin Ia; Seq ID No.6 (protein)
chain: SDPVRITNPGAESLGYDSDGHEIMAVDIYVNPPRVDVFHGTPPAWSSFGNKTIWGGNEWVDDSPTRSDIEKRDKEITAYKNTLSAQQKENENKRTEAGKRLSAAIAAREKDENTLKTLRAGNADAADITRQEFRLLQAELREYGFRTEIAGYDALRLHTESRMLFADADSLRISPREARSLIEQAEKRQKDAQNADKKAADMLAEYERRKGILDTRLSELEKNGGAALAVLDAQQARLLGQQTRNDRAISEARNKLSSVTESLNTARNALTRAEQQLTQQKNTPDGKTIVSPEKFPGRSSTNHSIVVSGDPRFAGTIKITTSAVIDNRANLNYLLSHSGLDYKRNILNDRNPVVTEDVEGDKKIYNAEVAEWDKLRQRLLDARNKITSAESAVNSARNNLSARTNEQKHANDALNALLKEKENIRNQLSGINQKIAEEKRKQDELKATKDAINFTTEFLKSVSEKYGAKAEQLAREMAGQAKGKKIRNVEEALKTYEKYRADINKKINAKDRAAIAAALESVKLSDISSNLNRFSRGLGYAGKFTSLADWITEFGKAVRTENWRPLFVKTETIIAGNAATALVALVFSILTGSALGIIGYGLLMAVTGALIDESLVEKANKFWGISYWLHWIKQRPGQGLWIGSQSTHVPRT
modifications: The amino acid sequence of antibiotic PMC-AM1

Test system: Mycobacterium tuberculosis (H37Rv, clinical drug-resistant strain94120)
Type: cell-based

| Molecule | growth of bacteria lawn, strain H37Rv, re-culture test | bacteriostatic or bactericidal role | growth of bacteria lawn, strain94120 |
| --- | --- | --- | --- |
| B1 | quantity of cells growth; also recorded: a mass of bacteria lawn growing |  |  |
| B2 | still no cell growth; also recorded: always no growth of bacteria lawn | bactericidal effect rather than simply antibacterial effect | no cell growth; also recorded: no growth of bacteria lawn |

— patent US9073989B2, “Antibiotic comprising an antibody mimetic, its preparation methods and uses thereof” (PROTEIN DESIGN LAB, LTD, priority 2011, dated 2015)
